Measurements from publication PMC10720262 (Cell Reports, 2023).
Changes are numbered by the printed parent chain.

B1: mAb Ky15.8 (human IgG1) (antibody, V domains shown)
VH: QVQLVESGGNVVQPGRSLRLSCTASGFTFSSYGMHWVRQAPDKGLEWVAIIWYDGGNKFYADSVKGRFTISRDNSKDTLYLQMNSLRAEDTAVYYCAKAWYKIDDKYSMDVWGQGTTVTVSS
VL: not shown
B2: mAb Ky15.10 (human IgG1) (antibody, V domains shown)
VH: QVQLVESGGGVVQPGRSLRLSCAASGFTFSNSGMHWVRQVPGKGLEWVAIIWYDGSNKYYADSVKGRFSVSRDNSENTLYLQMSNLRAEDTAVYYCVRAYFDSENLYDYYGMDVWGQGTTVTVSS
VL: DIQMTQSPSTLSASVGDRVTITCRASQSISRWLAWFQKKPGKAPKLLIYTASNLESGVPSRFSGSGSGTEFTLTISSLQPDDFATYYCQQYYNYWTFGQGTKVEVK
B3: mAb Ky15.11 (human IgG1) (antibody, V domains shown)
VH: QVQLVESGGGVVQPGRSLRLSCEASGFTFSNFGMHWVRQTPVKGLEWVAIIWFDGSYKYYTDSVKGRFTISRDNSKNTLYLQMNSLRAEDTAVYYCARARKGQRSDYYGSETSYTFDNWGQGTLVTVSS
VL: DIQMTQSPSTLSASVGDRVTITCRASQSINGWLAWYQQKPGKAPKFLIYKASILESGIPSRFSGSGSGTEFTLTISSLQPDDFATYYCQQYSSYWTFGQGTKVEIK
B4: mAb Ky224 (human IgG1) (antibody, V domains shown)
VH: QVQLVESGGGVVQPGRSLRLSCAASGFTFSVYGMHWVRQAPGKGLEWVAVIWYDGSNKIYADSVKGRFTISRDNSKNTLYLQMDSLSAADTAVYYCAKIGSSSFDYWGQGTLVIVSS
VL: DIVMTQTPLSSPVTLGQPASISCRSSQSLVHSNGITYLSWLQQRPGQPPRLLLYEISNRFSGVPDRFSGSGTGTDFTLKISRVEAEDVGVYYCMQTTQFPITFGQGTRLEIK
B5: mAb 317 (antibody, V domains shown)
VH: QMQLVESGGGVVQPGRSLRLSCTASGFTFSTYAMHWVRQSPGQGLQWVAVISYHSTNKYYEDSVRGRFTISRDNSKNTLYLQMNSLRAEDTAVYYCARDGYSSSFFDFWGQGTLVTVSS
VL: DIQMTQSPSTLSASVGDRVAITCRASQSISRWLAWYQQQPGKAPKLLMSGASVLESGVPSRFSGSGSGTEFTLTISSLQPDDFATYYCQHYNSYFVTFGQGTKVEIK
notes: also called 31715 (label with citation mark 15)
B6: mAb CIS43 (antibody, V domains shown)
VH: QVQLVQSGAEVKKPGASVKVSCKASGYTFTSYAIHWVRQAPGQRLEWMGWIKAGNGNTRYSQKFQDRVTITRDTSTTTAYMELSSLRSEDTAVYYCALLTVLTPDDAFDIWGQGTMVTVSS
VL: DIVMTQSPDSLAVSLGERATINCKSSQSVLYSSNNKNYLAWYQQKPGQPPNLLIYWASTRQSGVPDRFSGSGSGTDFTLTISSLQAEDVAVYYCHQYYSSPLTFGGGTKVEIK
notes: also called CIS4317 (label with citation mark 17)
B7: mAb 2541 (antibody, V domains shown)
VH: QVQLVESGGGVVQPGRSLRLSCAASGFTFSSYGMHWVRQTTGKGLEWVAIIWHDGSKKYYADSVKGRLTISRDNSKNTLYLQMNSLRVEDTALYYCARVGDYSDFKYGAFDIWGQGTMVTVSS
VL: B3 VL with N30S, G31S, K45N, F46L, I53T, I58V, S92N, K102R
notes: also called 254121 (label with citation mark 21)

Columns and labels:
[1] = target: recombinant full-length PfCSP (Plasmodium falciparum circumsporozoite protein, strain NF54) (Plasmodium falciparum NF54, UniProt P19597); assay: cell-based or functional assay
[2] = target: T1, recombinant full-length PfCSP (strain NF54) (Plasmodium falciparum NF54, UniProt P19597); assay: BLI; Octet RED96; His-tagged PfCSP on Ni-NTA biosensors, 2-fold dilutions of mAb; PBS pH 7.4, 0.01% BSA, 0.002% Tween 20; 1:1 binding model; conditions: both partners purified
T1 construct: also called NF54 PfCSP; Pf circumsporozoite protein; not shown: His tag, C-terminal, kept

NANP6 peptide = target: T2, NANP6 peptide (Plasmodium falciparum NF54); assay: SPR; Carterra LSA; mAb amine-coupled to a CMD200M chip, peptide titrated in 2-fold steps up to 8 ug/mL without regeneration; 25 C; HBSTE (10 mM HEPES pH 7.4, 150 mM NaCl, 3 mM EDTA, 0.01% Tween 20); 1:1 Langmuir model; mean of triplicates; KD includes avidity for antigens with several repeats; conditions: both partners purified
T2 construct: source: synthetic peptide (CPC Scientific)

T1 sequence (P19597 20-375): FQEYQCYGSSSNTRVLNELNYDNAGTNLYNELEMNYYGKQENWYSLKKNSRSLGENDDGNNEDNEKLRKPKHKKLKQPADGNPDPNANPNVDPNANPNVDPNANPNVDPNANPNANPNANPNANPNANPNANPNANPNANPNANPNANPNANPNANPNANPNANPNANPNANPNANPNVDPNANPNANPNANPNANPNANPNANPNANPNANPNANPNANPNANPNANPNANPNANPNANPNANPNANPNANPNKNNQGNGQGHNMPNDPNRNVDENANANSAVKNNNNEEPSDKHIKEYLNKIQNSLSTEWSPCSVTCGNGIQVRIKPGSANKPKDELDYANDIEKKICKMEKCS
recombinant full-length PfCSP (Plasmodium falciparum circumsporozoite protein, strain NF54), sequence (P19597 20-375): as above

Binder	other [1]	kon [2]	Kd (NANP6 peptide)	koff (NANP6 peptide)	kon (NANP6 peptide)
B1	< 1.5 µg/mL				
B2	< 1.5 µg/mL				
B3	< 1.5 µg/mL				
B4	< 1.5 µg/mL				
B5		27200 M⁻¹ s⁻¹	0.404 nM	0.000118 s⁻¹	292000 M⁻¹ s⁻¹
B6		444000 M⁻¹ s⁻¹	54.9 nM	0.00974 s⁻¹	179000 M⁻¹ s⁻¹
B7		71000 M⁻¹ s⁻¹	≤ 0.133 nM	≤ 1e-05 s⁻¹	86600 M⁻¹ s⁻¹
